These results are taken from doi:10.1101/2024.01.24.577054 (bioRxiv, 2024).

This series concerns the molecule itself. Nature of the series: FRET or BRET. (In general: BRET reads energy transfer from a luciferase to a nearby fluorophore.)

B1: BmrA, homodimeric multi-drug resistance ABC exporter from B. subtilis (His-C-ter-BmrA), labelled with sulfo-Cy3/sulfo-Cy5 (natural protein, UniProt O06967 1-589, looked up)
chain: MPTKKQKSKSKLKPFFALVRRTNPSYGKLAFALALSVVTTLVSLLIPLLTKQLVDGFSMSNLSGTQIGLIALVFFVQAGLSAYATYALNYNGQKIISGLRELLWKKLIKLPVSYFDTNASGETVSRVTNDTMVVKELITTHISGFITGIISVIGSLTILFIMNWKLTLLVLVVVPLAALILVPIGRKMFSISRETQDETARFTGLLNQILPEIRLVKASNAEDVEYGRGKMGISSLFKLGVREAKVQSLVGPLISLVLMAALVAVIGYGGMQVSSGELTAGALVAFILYLFQIIMPMGQITTFFTQLQKSIGATERMIEILAEEEEDTVTGKQIENAHLPIQLDRVSFGYKPDQLILKEVSAVIEAGKVTAIVGPSGGGKTTLFKLLERFYSPTAGTIRLGDEPVDTYSLESWREHIGYVSQESPLMSGTIRENICYGLERDVTDAEIEKAAEMAYALNFIKELPNQFDTEVGERGIMLSGGQRQRIAIARALLRNPSILMLDEATSSLDSQSEKSVQQALEVLMEGRTTIVIAHRLSTVVDADQLLFVEKGEITGRGTHHELMASHGLYRDFAEQQLKMNADLENKAG
modifications: sulfo-Cy3 or sulfo-Cy5 maleimide dye on C436 (the sole Cys residue of each monomer)
On to B1, for which the binding result is listed as “binds”.
